The target of assay [1] is T1, A subunit of Enterococcus hirae V-ATPase, wild type (Enterococcus hirae, UniProt Q08636 1-593).
T1 construct: A subunit of Enterococcus hirae V-ATPase; synthetic gene with E. coli codon usage in pET23d; also called A monomer; source: E. coli BL21 (DE3), purified
T1 sequence (looked up): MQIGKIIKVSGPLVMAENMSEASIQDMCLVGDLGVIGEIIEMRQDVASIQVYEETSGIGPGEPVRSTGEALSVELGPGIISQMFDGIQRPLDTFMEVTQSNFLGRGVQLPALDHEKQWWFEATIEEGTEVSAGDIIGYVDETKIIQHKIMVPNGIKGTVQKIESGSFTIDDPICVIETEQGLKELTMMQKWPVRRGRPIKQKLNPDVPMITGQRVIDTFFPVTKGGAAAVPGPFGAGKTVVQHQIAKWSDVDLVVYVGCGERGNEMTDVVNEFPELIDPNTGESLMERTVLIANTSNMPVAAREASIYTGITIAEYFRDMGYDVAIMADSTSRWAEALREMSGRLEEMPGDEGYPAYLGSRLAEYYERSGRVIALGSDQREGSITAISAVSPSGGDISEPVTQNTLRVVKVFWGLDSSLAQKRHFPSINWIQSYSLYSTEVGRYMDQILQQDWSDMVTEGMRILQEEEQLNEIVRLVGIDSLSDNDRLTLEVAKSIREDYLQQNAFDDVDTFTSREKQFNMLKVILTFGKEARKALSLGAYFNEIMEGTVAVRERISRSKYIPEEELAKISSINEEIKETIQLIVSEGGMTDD
The experiment in a line: native gel or EMSA; purified A3B3 and DF complexes mixed in a 1:5 molar ratio, 1 h on ice; formation of A3B3DF (V1) confirmed by basic native-PAGE. The settings on record: both partners purified.

Assay [2] addresses T2, B subunit of Enterococcus hirae V-ATPase, wild type (Enterococcus hirae, UniProt Q08637 1-458).
T2 construct: B subunit of Enterococcus hirae V-ATPase; synthetic gene with E. coli codon usage in pET23d; also called B monomer; source: E. coli BL21 (DE3), purified
T2 sequence (looked up): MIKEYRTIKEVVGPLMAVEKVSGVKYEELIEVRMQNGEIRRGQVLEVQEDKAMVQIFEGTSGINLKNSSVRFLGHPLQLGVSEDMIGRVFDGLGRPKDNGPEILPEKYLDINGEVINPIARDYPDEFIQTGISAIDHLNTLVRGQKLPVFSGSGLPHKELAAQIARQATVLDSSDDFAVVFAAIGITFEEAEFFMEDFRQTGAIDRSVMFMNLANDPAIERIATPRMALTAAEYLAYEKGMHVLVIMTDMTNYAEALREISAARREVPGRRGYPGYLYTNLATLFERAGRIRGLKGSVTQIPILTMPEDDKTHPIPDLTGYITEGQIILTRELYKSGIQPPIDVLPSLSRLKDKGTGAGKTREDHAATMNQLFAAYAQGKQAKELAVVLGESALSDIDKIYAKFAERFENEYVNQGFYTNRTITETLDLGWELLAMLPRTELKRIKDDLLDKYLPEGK
The description is as above. To be noted: both partners purified.

B1: D subunit of Enterococcus hirae V-ATPase, wild type (natural protein, UniProt P43435 1-210, looked up)
chain: MRLNVNPTRMELTRLKKQLTTATRGHKLLKDKQDELMRQFILLIRKNNELRQAIEKETQTAMKDFVLAKSTVEEAFIDELLALPAENVSISVVEKNIMSVKVPLMNFQYDETLNETPLEYGYLHSNAELDRSIDGFTQLLPKLLKLAEVEKTCQLMAEEIEKTRRRVNALEYMTIPQLEETIYYIKMKLEENERAEVTRLIKVKNMGTEE
notes: D subunit of Enterococcus hirae V-ATPase; Was never handled alone; stands here for the pairs of subunits inside the DF and A3B3DF complexes; source: E. coli cell-free protein expression system, synthesized together with F, purified
As to B1, the binding result in assay [1] and in assay [2] was “binds” in each case.

(Values after PMC3772951 (PLoS ONE, 2013).)
